Results published in the supplement of paper PMC6757056.
± gives the standard deviation of the averaged measurements.

B1: library; a variant is named by its letters at N, in order (parent)
chain: GCUGUCACCGGUGUAUUACCCUAGUGGUCGACCGGUCUGAUGAGUCUNNNNNNAGACGAAACAGC

Legend:
hypoxanthine [1] = variants of: B1; assay: normalized RNA/DNA level with ligand (relative to sTRSVctl = 100) (log10 (% of sTRSVctl)); ligand: hypoxanthine (xanthine aptamer); higher = less ribozyme self-cleavage, higher mRNA level; conditions: ligand concentration (+) RNA-Seq: 5 mM, HEK293T, reporter: mCherry (pCS4076), ligand present: yes
Summary of the method: (§1)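 Ribozyme switch library plasmids with mCherry reporters (eGFP in certain ligand experiments) went into HEK293T cells at 4 µg per 6-well well. Where ligand was used, it was applied 1 h before transfection, and total RNA was extracted with EDTA 72 h later for reverse transcription, amplification, barcoding and sequencing. RNA level is the RNA-to-DNA read ratio normalized to a spiked-in non-cleaving sequence or to the leading sequences, then scaled and log-transformed. Scaling was ×100 with log10, the leading set comprised 25 sequences, and the cutoff was ≥100 DNA reads.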

hypoxanthine [2] = variants of: B1; assay: normalized RNA/DNA level without ligand (relative to sTRSVctl = 100) (log10 (% of sTRSVctl)); ligand: hypoxanthine (xanthine aptamer); higher = less ribozyme self-cleavage, higher mRNA level; conditions: HEK293T, reporter: mCherry (pCS4076), ligand present: no
Summary of the method: as §1

Variant | normalized RNA/DNA level with ligand (log10) (hypoxanthine [1]) | normalized RNA/DNA level without ligand (log10) (hypoxanthine [2])
GAUAUC | 1.91 ± 0.03 | 1.908 ± 0.0029
GAUAUU | 1.8969 ± 0.0013 | 1.84 ± 0.038
CAUCGU | 2 ± 0.038 | 1.94 ± 0.025
CAUCGG | 1.92 ± 0.055 | 1.63 ± 0.036
CAUCGC | 1.97 ± 0.064 | 1.9 ± 0.021
CAGGGA | 1.95 ± 0.04 | 1.781 ± 0.014
CAGGGC | 1.99 ± 0.056 | 1.84 ± 0.052
CAGGGU | 1.884 ± 0.017 | 1.75 ± 0.021
CAGCAC | 1.94 ± 0.035 | 1.81 ± 0.034
CAGCAG | 1.89 ± 0.019 | 1.68 ± 0.11
CAGCAA | 1.885 ± 0.01 | 1.637 ± 0.014
UAGUGC | 1.95 ± 0.038 | 1.712 ± 0.014
AAUCAG | 1.838 ± 0.018 | 1.56 ± 0.041
AAUCAA | 1.89 ± 0.066 | 1.75 ± 0.068
AAUGGU | 1.925 ± 0.016 | 1.592 ± 0.0071
AAUGGC | 1.929 ± 0.0094 | 1.79 ± 0.02
GAGGCC | 2.03 ± 0.031 | 1.93 ± 0.023
CAGGCG | 1.96 ± 0.035 | 1.837 ± 0.0025
CAGGCU | 1.938 ± 0.0094 | 1.919 ± 0.0073
CAGGCA | 1.912 ± 0.008 | 1.68 ± 0.069
CAGGCC | 2 ± 0.027 | 2 ± 0.032
CAUAAG | 1.92 ± 0.016 | 1.71 ± 0.019
CAUAAC | 1.9194 ± 0.0019 | 1.83 ± 0.056

Variant | normalized RNA/DNA level with ligand (log10) (hypoxanthine [1]) | normalized RNA/DNA level without ligand (log10) (hypoxanthine [2])
UAGAUC | 1.964 ± 0.012 | 1.955 ± 0.018
UAGAUU | 1.93 ± 0.027 | 1.866 ± 0.017
UAGAUA | 1.917 ± 0.0088 | 1.82 ± 0.071
CAUAUG | 1.94 ± 0.016 | 1.86 ± 0.042
CAUAUA | 1.9 ± 0.027 | 1.73 ± 0.028
CAUAUU | 1.91 ± 0.044 | 1.8 ± 0.041
CAUAUC | 1.95 ± 0.0088 | 1.9 ± 0.012
AAUGAA | 1.872 ± 0.0038 | 1.71 ± 0.018
UAGCGU | 1.88 ± 0.055 | 1.46 ± 0.12
UAGCGC | 1.95 ± 0.023 | 1.85 ± 0.057
AAGAGC | 1.9 ± 0.046 | 1.532 ± 0.009
UAGUCG | 1.924 ± 0.013 | 1.737 ± 0.0043
UAGUCU | 1.96 ± 0.028 | 1.88 ± 0.019
UAGGAG | 1.872 ± 0.018 | 1.41 ± 0.04
UAGGAC | 1.934 ± 0.0064 | 1.83 ± 0.037
GAUAGU | 1.88 ± 0.059 | 1.72 ± 0.034
GAUAGC | 1.87 ± 0.025 | 1.55 ± 0.097
AAUCGU | 1.94 ± 0.023 | 1.69 ± 0.022
AAUCGC | 1.92 ± 0.03 | 1.82 ± 0.053
AAUCGA | 1.92 ± 0.076 | 1.63 ± 0.034
UAUCAU | 1.922 ± 0.017 | 1.79 ± 0.045
UAUCAG | 1.87 ± 0.019 | 1.7 ± 0.036
AAGUGC | 1.879 ± 0.018 | 1.53 ± 0.036

Variant | normalized RNA/DNA level with ligand (log10) (hypoxanthine [1]) | normalized RNA/DNA level without ligand (log10) (hypoxanthine [2])
CAUACC | 1.93 ± 0.023 | 1.891 ± 0.016
CAUACA | 1.9 ± 0.069 | 1.78 ± 0.051
CAUACU | 1.92 ± 0.04 | 1.83 ± 0.052
AAGCCC | 1.97 ± 0.032 | 1.9 ± 0.041
AAGCCU | 1.96 ± 0.02 | 1.85 ± 0.059
GAGGAU | 1.955 ± 0.019 | 1.7 ± 0.074
UAUAGC | 1.95 ± 0.009 | 1.83 ± 0.054
UAUAGG | 1.852 ± 0.017 | 1.43 ± 0.02
UAUAGA | 1.892 ± 0.0092 | 1.63 ± 0.019
AAUCCA | 1.92 ± 0.046 | 1.865 ± 0.015
AAUCCC | 1.94 ± 0.024 | 1.84 ± 0.035
CAGAAU | 1.9 ± 0.034 | 1.64 ± 0.072
CAGAAG | 1.9 ± 0.028 | 1.59 ± 0.021
AAGCUU | 1.94 ± 0.062 | 1.86 ± 0.023
AAGCUC | 1.975 ± 0.002 | 1.959 ± 0.01
AAGCUA | 1.91 ± 0.021 | 1.68 ± 0.056
CAGUGC | 1.96 ± 0.0096 | 1.814 ± 0.0038
CAUGCA | 1.979 ± 0.013 | 1.688 ± 0.016
CAUGCC | 1.92 ± 0.1 | 1.84 ± 0.028
UAUGAA | 1.915 ± 0.013 | 1.73 ± 0.023
UAUGAU | 1.91 ± 0.022 | 1.7488 ± 0.0016
UAUGAG | 1.86 ± 0.046 | 1.54 ± 0.046
CAGAUA | 1.88 ± 0.052 | 1.57 ± 0.043

Variant | normalized RNA/DNA level with ligand (log10) (hypoxanthine [1]) | normalized RNA/DNA level without ligand (log10) (hypoxanthine [2])
CAGAUU | 1.96 ± 0.024 | 1.768 ± 0.015
CAGAUC | 1.98 ± 0.089 | 1.91 ± 0.032
CAGAUG | 1.94 ± 0.03 | 1.808 ± 0.011
UAUACG | 1.83 ± 0.042 | 1.686 ± 0.008
UAUACC | 1.95 ± 0.12 | 1.88 ± 0.014
UAUCUG | 1.904 ± 0.0025 | 1.708 ± 0.0037
UAUCUC | 2 ± 0.021 | 1.99 ± 0.031
UAUCUU | 1.97 ± 0.044 | 1.9 ± 0.043
UAUCUA | 1.92 ± 0.059 | 1.89 ± 0.024
CAUAGU | 2 ± 0.039 | 1.88 ± 0.019
CAUAGC | 1.923 ± 0.0099 | 1.86 ± 0.014
CAUAGG | 1.836 ± 0.015 | 1.43 ± 0.11
UAGCAC | 1.927 ± 0.0061 | 1.8 ± 0.018
UAGCAU | 1.91 ± 0.026 | 1.772 ± 0.0045
GAGAGU | 1.87 ± 0.091 | 1.49 ± 0.029
GAUAAC | 1.92 ± 0.079 | 1.712 ± 0.0033
GACUUU | 1.923 ± 0.017 | 1.91 ± 0.056
UAGCCU | 2 ± 0.037 | 1.953 ± 0.006
UAGCCC | 1.956 ± 0.018 | 1.885 ± 0.0052
UAGCCG | 1.982 ± 0.016 | 1.728 ± 0.0043
UAGCCA | 1.93 ± 0.032 | 1.91 ± 0.082
UACUUC | 1.98 ± 0.05 | 2 ± 0.058
UACUUG | 1.929 ± 0.0075 | 1.72 ± 0.064

Variant | normalized RNA/DNA level with ligand (log10) (hypoxanthine [1]) | normalized RNA/DNA level without ligand (log10) (hypoxanthine [2])
GAGGGU | 1.93 ± 0.032 | 1.689 ± 0.014
GAGGGG | 1.814 ± 0.015 | 1.34 ± 0.033
GAGGGA | 1.9 ± 0.053 | 1.52 ± 0.022
GAGCAU | 1.944 ± 0.018 | 1.72 ± 0.022
GAGUUA | 1.891 ± 0.0028 | 1.64 ± 0.056
GAGUUC | 1.92 ± 0.093 | 1.86 ± 0.053
GAUGUA | 1.887 ± 0.018 | 1.79 ± 0.03
GAUGUC | 1.95 ± 0.0048 | 1.92 ± 0.02
UAUCGA | 1.92 ± 0.035 | 1.76 ± 0.046
UAUCGU | 1.9 ± 0.052 | 1.7 ± 0.091
GAGCCG | 1.85 ± 0.034 | 1.44 ± 0.021
GAGCCU | 2.01 ± 0.028 | 1.94 ± 0.024
GAGCCC | 1.99 ± 0.053 | 1.906 ± 0.013
UAUGGA | 1.906 ± 0.012 | 1.65 ± 0.02
GAUCUA | 1.95 ± 0.055 | 1.86 ± 0.033
GAUCUU | 1.96 ± 0.028 | 1.943 ± 0.0084
GAUCUG | 1.92 ± 0.051 | 1.58 ± 0.039
GAUCUC | 1.939 ± 0.0052 | 1.976 ± 0.0046
UAUGCC | 1.935 ± 0.0058 | 1.87 ± 0.067
UAUGCG | 1.8828 ± 0.0017 | 1.67 ± 0.037
UAUGCA | 1.88 ± 0.022 | 1.83 ± 0.019
UAUGCU | 1.92 ± 0.013 | 1.85 ± 0.03
AAGACU | 1.95 ± 0.064 | 1.856 ± 0.0071
